In publication PMC9089689 (ACS Omega, 2022):
Positions count from the first letter of the chain named. Numbers in names are those of the source.

Columns and labels:
NMR 1H-15N HSQC = molecular target: the molecule itself; test: NMR 1H-15N HSQC
SEC = molecular target: the molecule itself; test: SEC
[1] = molecular target: T1, Hup-WT (histone-like DNA binding protein HU) (Helicobacter pylori, UniProt O25506 1-94); test: Tyr fluorescence quenching
T1 sequence: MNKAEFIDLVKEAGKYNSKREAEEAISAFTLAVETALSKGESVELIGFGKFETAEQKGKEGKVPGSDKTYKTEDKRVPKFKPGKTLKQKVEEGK

B1: Hup-P64A protein (natural protein, Helicobacter pylori, UniProt O25506 1-94, looked up)
chain: T1 sequence with P64A
intensity ratio [dimer:monomer] (NMR 1H-15N HSQC): ~1.5 | stoichiometry N (SEC): 2

B2: Helicobacter pylori histone-like DNA binding protein (Hup), wild type (natural protein, UniProt O25506 1-94, looked up)
chain: T1 sequence
stoichiometry N (SEC): 2

TTTTTTTTTTCGAAGAAAAAAAAAA (structured_DNA) [hp-DNA (25-base A/T-rich hairpin)]
Kd [1]: 500 ± 50 nM
